This is an account of results in PMC9561381 (Nucleic Acids Research, 2022).

This series concerns the molecule itself. Kind of series: SEC-MALS.

B1: DCP2_(C-tail), untagged (domain or fragment, human, UniProt Q8IU60 249-353, looked up)
chain: SDNGFSSTGSTPAKPTVEKLSRTKFRHSQQLFPDGSPGDQWVKHRQPLQQKPYNNHSEMSDLLKGKNQSMRGNGRKQYQDSPNQKKRTNGLQPAKQQNSLMKCEK
Turning to B1, the binding result is “binds”.
